Assay results as given in article PMC4346921, “Identification of the Specific Interactors of the Human Lariat RNA Debranching Enzyme 1 Protein” (International Journal of Molecular Sciences, 2015).

Biological target: T1, GST-hDbr1 (human, UniProt Q9UK59-1 1-544)
T1 construct: human Dbr1, cDNA NM_016216 inserted into BamHI and XhoI sites of GEX-6P-1; also called GST-hDbr1 protein; recombinant Dbr1 protein fused to GST; source: E. coli BL21 (DE3) CodonPlus-RIPL, purified (Glutathione Sepharose)
T1 sequence (looked up): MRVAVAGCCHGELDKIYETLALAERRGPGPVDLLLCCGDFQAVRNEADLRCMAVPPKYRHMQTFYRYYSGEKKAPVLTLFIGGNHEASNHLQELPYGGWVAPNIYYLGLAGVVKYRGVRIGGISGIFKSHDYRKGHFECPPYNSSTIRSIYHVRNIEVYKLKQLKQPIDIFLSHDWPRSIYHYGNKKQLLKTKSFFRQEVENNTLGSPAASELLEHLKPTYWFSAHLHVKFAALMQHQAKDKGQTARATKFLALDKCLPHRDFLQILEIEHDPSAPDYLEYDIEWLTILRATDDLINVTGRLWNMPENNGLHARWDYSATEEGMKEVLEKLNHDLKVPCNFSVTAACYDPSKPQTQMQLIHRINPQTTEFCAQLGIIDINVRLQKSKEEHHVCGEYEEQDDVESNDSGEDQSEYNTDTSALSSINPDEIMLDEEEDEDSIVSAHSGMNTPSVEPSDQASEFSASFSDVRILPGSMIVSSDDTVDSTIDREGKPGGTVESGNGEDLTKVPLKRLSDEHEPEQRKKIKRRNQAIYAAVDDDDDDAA
Assay: pull-down; 2 μg purified His-tagged (T7-His) hDrn1 incubated with 5 μg GST or GST-hDbr1; bound proteins detected by Western blotting with anti-T7 tag antibody
Settings: both partners purified

B1: T7-His-hDrn1 (natural protein, human, UniProt Q69YN2-1 1-538, looked up)
chain: MAQKPLRLLACGDVEGKFDILFNRVQAIQKKSGNFDLLLCVGNFFGSTQDAEWEEYKTGIKKAPIQTYVLGANNQETVKYFQDADGCELAENITYLGRKGIFTGSSGLQIVYLSGTESLNEPVPGYSFSPKDVSSLRMMLCTTSQFKGVDILLTSPWPKCVGNFGNSSGEVDTKKCGSALVSSLATGLKPRYHFAALEKTYYERLPYRNHIILQENAQHATRFIALANVGNPEKKKYLYAFSIVPMKLMDAAELVKQPPDVTENPYRKSGQEASIGKQILAPVEESACQFFFDLNEKQGRKRSSTGRDSKSSPHPKQPRKPPQPPGPCWFCLASPEVEKHLVVNIGTHCYLALAKGGLSDDHVLILPIGHYQSVVELSAEVVEEVEKYKATLRRFFKSRGKWCVVFERNYKSHHLQLQVIPVPISCSTTDDIKDAFITQAQEQQIELLEIPEHSDIKQIAQPGAAYFYVELDTGEKLFHRIKKNFPLQFGREVLASEAILNVPDKSDWRQCQISKEDEETLARRFRKDFEPYDFTLDD
notes: Cwf19L1/hDrn1 cDNA (NM_018294), same fragment as in myc-/Flag-hDrn1, between BamHI and XhoI sites of pET-28a; pET-28a with BamHI/XhoI would place the His and T7 tags at the N-terminus (surmised); also called T7- and His-tagged hDrn1 protein; His-tagged hDrn1; source: E. coli BL21 (DE3) CodonPlus-RIPL, purified (Ni-NTA)
B1: binds.
